First the molecules themselves.
B1: C085 (antibody, V domains shown)
VH: QVQLQESGPGLVKPSETLSLTCTVSGDSMSSYFWTWIRQPPGKGLECIGYFYPSGSTNYNPSLKSRVTISIDTSKNQFSLKLSSVTAADTAVYYCARLKQQLVGFGWFDPWGQGTLVTVSS
VL: QSVLTQPPSVSGAPGQRVTISCTGSSSNIGADYDVHWYQQFPGTAPKVLIYANTNRPSGVPERFSGSKSGTSASLAITGLQAEDEADYYCQSYDHSLNWVFGGGTKLTVL
B2: C086 (antibody, V domains shown)
VH: B1 VH with M29I, S31T, T35A, K43R, Y50S, Y52F, N58Y, I71V, S83N, T115S
VL: B1 VL with S26I, D34E, Q39V, G66A, S96R, N98H
B3: C519 (antibody, V domains shown)
VH: QVQLQESGPGLVKPSETLSLTCAVSGGSISSYYWSWIRQPPGKGLEWIGYIDTSGSTNYNPSLKSRVTMSVDTSKNQFSLNVNSVTAADTAVYFCGVCAGDCYAASVFDYRGQGTLVTVSS
VL: DIQMTQSPSSLSASVGDRVTITCQASQDIIFYLNWYQQKPGKAPKLLIYDASNLKTGVPSRFSGSGSGTDFAFTISSLQPEDIATYYCQQYDNLPLTFGGGTKVEIK
B4: C089 (antibody, V domains shown)
VH: QVQLVESGGGVVQPGRSLRLSCAASGFTFRTYAMHWVRQAPGKGLEWVAVILSDGNNKYYADSVKGRFTISRDNSKNTLYLQMNSLRAEDTAIFYCAREQEANYYDISGYYHWGESLGYWGQGTLVTVSS
VL: DIQLTQSPSFLSASVGDRVTITCRASQGISSYLAWYQQKPGKAPKLLIYGASTLQSGVPSRFSGSGSGTEFTLTISSLQPEDFASYYCQKVNSHPPGLTFGGGTKVEIK
B5: C090 (antibody, V domains shown)
VH: B4 VH
VL: B4 VL with L46F, H94Y
B6: C032 (antibody, V domains shown)
VH: EVQLVQSGAEVKKPGESLKISCKGSGYSFTSYWIGWVRQMPGKGLEWMGIIYPGDSDTRYSPSFQGQVTISADKSISTAYLQWSSLKASDTAMYYCARGVAVDWYFDLWGRGTLVTVSS
VL: QSVLTQPPSVSGAPGQRVTISCTGSSSNIGAGYDVHWYQQLPGTAPKLLIYGNSNRPSGVPDRFSGSKSGTSASLAITGLQAEDEADYYCQSYDSSLSALYVFGTGTKVTVL
B7: C080 (antibody, V domains shown)
VH: B6 VH with K19N, G24A, S31I, G35A, M40L, S84R, T91S, M93V
VL: B6 VL with T23A, Y33F, H36Y, S54N, Y93S, D94G, S96V, A99D
B8: C069 (antibody, V domains shown)
VH: QVQLVQSGAEVKKPGSSVNVSCKASGGTFSTYAIHWVRQAPGQGLEWMGGIIPLFHTANYAQKFQGRVTITADESTSTAYMELSSLRSEDTAMYYCAINTQWDLVPRWGRGTLVTVSS
VL: EIVLTQSPGTLSLAPGERATLSCRASQSVNSNYLAWYQQKPGQAPRLLIYGASSRATGIPDRFSGSGSGTDFTLTISRLEPEDFAVYYCQQYGFSLYSFGQGTKLEIK
B9: C059 (antibody, V domains shown)
VH: QVQLVQSGAEVKKPGASIKVSCKASGYTFTDYSMHWVRQAPGQGLEWMGWINPNSGGTKYAQKFQGWVTMTRDMSITTVYMELTRLRSDATAVFYCARGPLFHKLVYDSWTGYHDGFDIWGQGTMVTVSS
VL: QSALTQPASVSGSPGQSITISCTGTSSDVGGYNYVSWYQHYPGKAPKLMIYEVTHRPSGVSNRFSGSKSGNTASLTISGLQAEDEADYYCSSSTNSSTWVFGGGTKMTVL
B10: C083 (antibody, V domains shown)
VH: EVQLVESGGGLVKPGGSLRLSCAASGFTFSSYSMNWVRQAPGKGLEWVSSISSSTSYIYYADSVKGRFTISRDNAKNSLYLQMNSLRAEDTAVYYCARERYGDNWGQGTLVTVSS
VL: QLVLTQSPSASASLGASVKLTCTLSSGHSSYAIAWHQQQPEKGPRYLMSLNSDGSHSKGDGIPDRFSGSSSGAERYLTISSLQSEDEADYYCQTWGPWVFGGGTKLTVL
B11: C094 (antibody, V domains shown)
VH: QVQLQESGPGLVKPSETLSLTCNVSGVSISTDYWSWIRQPPGKGLEWIGYIYYSGNTKDYNPSLKSRVTISVDTSKNQFSLMLSSVTAADTAVYYCARHYDILTSLSWFDPWGQGTLVTVSS
VL: QSVLTQPPSVSAAPGQKVTISCSITNSNLGNIYVSWYQQLPGTAPKLLIYGNNKRPSGIPDRFSGSKSGTSATLGITGLQTGDEAHYYCGTWDSSLSANWVFGGGTKLTVL
B12: C057 (antibody, V domains shown)
VH: QVQLVQSGAEVKRPGASVKLSCKASGYIFTDYSIHWVRQAPGQGLEWMGWVNPNSGGGNSAQKFMDWVTMARDTSITTVYMELSRLRSDDTAVYYCARGPLFHKLVYDSWSGYHDGFDIWGQGTMVTVSS
VL: QSALTQPASVSGSPGQSITISCTGTSSDVGAYKFVSWYQQHPGKAPQLIIYEVSNRPSGVSNRFSGSKSGNTASLTISGLQAEDEADYYCSSYTNASTWVFGGGTELTVL
B13: C060 (antibody, V domains shown)
VH: EVQLVESGGGLVQPGGSQRLSCAASGFTVSSNYMSWIRQAPGKGLEWVSVIYSGGSAYYVDSVKGRFTISRDNSKNTLYLQMNSLRPEDTAVYYCARIANYMDVWGKGTTVTVSS
VL: EIVMTQSPATLSVSPGERATLSCRASQSVSSHLAWYQQKPGQAPRLLIYGASTRATGIPTRFSGSGSGTEFTLTISSLQSEDFAVYYCQQYNNWPPLTFGGGTKVEIK
B14: C063 (antibody, V domains shown)
VH: EVQLVQSGAEVKKPGDSLKISCKASGYSFTRYWIGWVRQMPGKGLDWMGIIYPGDSDTRYSSSFQGQVTISADKSISTAYLQWSSLKASDTSLYYCVRRASSTNFEFWGQGTLVTVSS
VL: SYELTQPPSVSVAPGQTATITCGGNNIGSKTVHWYQQKPGQAPVVVVYDDSDRPSGIPERFSGSKSGSTATLTITRVEAGDEADYYCQVWDSTSDHYVFGTGTKVAVI
B15: C088 (antibody, V domains shown)
VH: QVQLVQSGAEAKKPGASVKVSCKTSGYTFTNYFMHWVRQAPGQGPEWMGIIDSSDGGASYAQKFQGRVTMTRDTSTSTVYMELRSLKFEDTAVYYCARASTSTTSWSDALSLGSWGQGTLVTVSS
VL: QSVLTQPPSVSGAPGQRVTISCTGSSSNIGGGSVVHWYQQLPGTAPKLLIYANSNRPSGVPDRFSGSKSGTSASLAIAGLQAEDEADYYCQSWDNGLSASGVVFGGGTKLTVL
B16: C068 (antibody, V domains shown)
VH: QVQLVESGGGVVQPGRSLRLSCVASGFSFSTYGMHWVRQAPGKGLEWVALIWSDGSNKYYGDAAEGRFTISRDNSNNTLYLQMNNLRAEDTALYYCARDHSSSSFVYYYYMDVWGKGTTVTVSS
VL: QSALTQPRSVSGSPGQSVTISCTGTSSDIGGYNYVSWYQQHPDKAPKFIIFDVSKRPSGVPDRFSGSKSGNTASLTISGLQAEDEADYYCCSYAGPYPYVFGTGTKVTVL
B17: C518 (antibody, V domains shown)
VH: EVQLVESGGGLIQPGGSLRLSCAASGITVSSNYMSWVRQAPGKGLEWVSVMYAGGSSFYADSVKGRFTISRDNSKNTLYLQMNSLRVEDTAVYYCARDLIALGVDVWGQGTTVTVSS
VL: DIQLTQSPSFLSASVGDRVTITCRASQGISSYLAWYQQKPGKAPKLLIYAASTLQSGVPSRFSGSGSGTEFTLTISSLQPEDFATYYCQLLNSYPMCSFGQGTKLEIK
B18: C066 (antibody, V domains shown)
VH: EVQLVESGGGLIQPGGSLRLSCAASGLLVSRNYMTWVRQAPGKGLEWVSVIYSGGSTFYADSVRGRFTISRDNSKNTLYLQMDSLRAEDTAVYYCARDVGDYYGMDVWGQGTTVTVSS
VL: B17 VL with S9A, I29M, S31N, K45N, A50T, M96Q, C97L, S98T, Q101G, L105V
B19: C067 (antibody, V domains shown)
VH: VQLVESGGGVVQPGRSLRLSCAASGFSFRIFGMNWVRQAPGKGLDWVAGISHDGSDKYFADSVKGRFTISRDNSKNTLYLQMNSLRADDTAVYYCARDMEVDYYDRSGHYHVFHAFDIWGQGTMVTVSS
VL: DIVMTQSPDSLAVSLGARATINCKSSQSILYSSDNKSSLAWYQQKPGHPPKLLIYWASTRESGVPDRFSGSESGTDFTLTISNLQGEDVAVYYCQQYYSIPRSFGQGTKLEIK
B20: C062 (antibody, V domains shown)
VH: EVQLVESGGGLVKPGGSLRLTCAASGFTFSTYSMNWVRQAPGKGLEWVSSISSSSSYIYYADSVKGRFTISRDNAKNSLYLQMNSLRAEDTAVYYCARERGYYGGKTPPFLGGQGTLVTVSS
VL: NFMLTQPHSVSESPGKTVTISCTGSSGSIASNYVQWYQQRPGSAPTTVIYEDNQRPSGVPDRFSGSIDSSSNSASLTISGLKTEDEADYYCQSYDSSNYWVFGGGTKLTVL
B21: C065 (antibody, V domains shown)
VH: QVQLQESGPGLVKPSQTLSLTCTVSGGSISSSNYYWSWIRQHPGKGLEWIGYIDYSGGTYYNPSLKSRVTISVDTSKNQFSLKLSSVTAADTAVYYCARVSTTVTTYLVGGFDIWGQGTMVTVSS
VL: IRMTQSPSSLSASVGDRVTITCQASQDITNYLNWYQQKPGKAPKLLLYDASNLETGVPSRFSGSGSGTDFTFTISSLQPEDIATYYCQQYDNLPWTFGQGTKVEIK
B22: C064 (antibody, V domains shown)
VH: EVQLLESGGDLVQPGGSLRLSCAASGFTFSNYAMSWVRQAPGKGLEWVSAISGSGGNTYYADSVKGRFTISRDNSKNTLYLQMNSLRAEDTAVYYCAKAVHYGGNSDRRFSEPSAPFDYWGQGTLVTVSS
VL: QSALTQPASVSGSPGQSITISCTGTSSDVGSYNLVSWYQQHPGKAPKLMIYEGSKRPSGVSNRFSGSKSGNTASLTISGLQAEDEADYYCCSYAGSSTPYVFGTGTKVTVL
B23: C091 (antibody, V domains shown)
VH: QVQLVQSGAEVKKPGSSVKVSCKASGGTFSSYTISWVRQAPGQGLEWMGRIIPILGIANYAQKFQGRVTITADKSTSTAYMELSSLRSEDTAVYYCARDSGYSGYGSTYYMDVWGKGTTVTVSS
VL: QSVLTQPPSVSGAPGQRVTISCTGSSSNIGAGYDVHWYQQLPGTAPKLLIYGNSNRPSGVPDRFSGSKSGTSASLAITGLQAEDEADYYCQSYDSSLSGSVFGTVTKVTVL

Changes are numbered by the printed parent chain.

This test has as its target SARS-CoV-2 receptor binding domain (RBD), wild type (SARS-CoV-2, UniProt P0DTC2 319-539). Kind of test: ELISA, RBD protein coated, mAb titrated. (In general: An ELISA detects its analyte on a solid surface through an enzyme-linked reagent.)
For B1, the concentration for a half-maximal effect (EC50) worked out at 2.38 ng/mL.

For B2, the midpoint of the response, the EC50, lay at 3.01 ng/mL. Take B3: the EC50 came to 1.06 ng/mL. With B4 the figure was 4.69 ng/mL; with B5, 6.22 ng/mL; with B6, 17.3 ng/mL.

The molecule B7 had a concentration for a half-maximal effect (EC50) of 1.97 ng/mL. The value for B8 was 381 ng/mL; that for B9 was 1.88 ng/mL; that for B10 was 25.1 ng/mL.

B11 gave an EC50 of 1.67 ng/mL. The value for B12 was 2.31 ng/mL. The value for B13 was 43.5 ng/mL; that for B14 was 414 ng/mL; that for B15 was 2.44 ng/mL. The value for B16 was 5.46 ng/mL; that for B17 was 1.13 ng/mL. On to B18, for which a half-maximal response (EC50) required 4.2 ng/mL. B19 came in with an EC50 of 6.98 ng/mL. The value for B20 was 4.69 ng/mL; that for B21 was 29.1 ng/mL; that for B22 was 363 ng/mL. In turn, B23 returned an EC50 of 89.5 ng/mL.

As usually defined, the EC50 is the concentration at which the effect is half-maximal. Read a low EC50 as higher potency in that assay.

Values taken from US20220195015A1 (published 2022).
